Data taken from PMC9482650, “Quantitative fragmentomics allow affinity mapping of interactomes” (Nature Communications, 2022).
Where a chain is given by its changes, count along the chain named.

T1: LIN7A, O14910
T1 sequence (O14910 103-200, limits assumed, looked up): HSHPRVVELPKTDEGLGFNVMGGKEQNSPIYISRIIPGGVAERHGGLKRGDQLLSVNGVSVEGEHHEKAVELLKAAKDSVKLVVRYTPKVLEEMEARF

T2: SNTB1, Q13884
T2 sequence (Q13884 107-205, limits assumed, looked up): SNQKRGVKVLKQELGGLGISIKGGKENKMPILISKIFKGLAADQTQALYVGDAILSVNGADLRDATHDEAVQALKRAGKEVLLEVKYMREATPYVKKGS

T3: NHERF3_3, Q5T2W1
T3 sequence (Q5T2W1 238-333, limits assumed, looked up): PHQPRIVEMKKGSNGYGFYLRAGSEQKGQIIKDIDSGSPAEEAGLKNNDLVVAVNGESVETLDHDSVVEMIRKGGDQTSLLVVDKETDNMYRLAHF

T4: MPDZ_5, O75970
T4 sequence (O75970 695-796, limits assumed, looked up): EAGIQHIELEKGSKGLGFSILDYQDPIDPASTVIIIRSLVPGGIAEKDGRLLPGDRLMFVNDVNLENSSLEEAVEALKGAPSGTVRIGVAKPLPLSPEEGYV

T5: TJP3_3, O95049
T5 sequence (O95049 375-456, limits assumed, looked up): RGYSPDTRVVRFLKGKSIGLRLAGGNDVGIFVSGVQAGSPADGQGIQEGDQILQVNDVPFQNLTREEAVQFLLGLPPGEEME

T6: CARD11, Q9BXL7
T6 sequence (Q9BXL7 662-765, limits assumed, looked up): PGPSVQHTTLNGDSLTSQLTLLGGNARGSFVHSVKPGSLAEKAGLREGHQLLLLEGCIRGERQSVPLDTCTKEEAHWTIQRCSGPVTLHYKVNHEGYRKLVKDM

T7: DLG3_2, Q92796
T7 sequence (Q92796 221-321, limits assumed, looked up): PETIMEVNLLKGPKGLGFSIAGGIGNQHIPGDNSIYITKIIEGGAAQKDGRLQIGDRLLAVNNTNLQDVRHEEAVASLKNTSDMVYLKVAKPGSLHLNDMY

T8: LIN7C, Q9NUP9
T8 sequence (Q9NUP9 88-185, limits assumed, looked up): T1 sequence (O14910 103-200, limits assumed, looked up) with D13E, V20I, V40I, E42D, K77Q, D78G, S79K, A96S

T9: DLG3_1, Q92796
T9 sequence (Q92796 125-227, limits assumed, looked up): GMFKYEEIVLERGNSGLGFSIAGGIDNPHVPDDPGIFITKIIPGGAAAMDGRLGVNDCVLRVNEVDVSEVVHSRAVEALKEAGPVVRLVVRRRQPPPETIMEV

T10: NHERF3_1, Q5T2W1
T10 sequence (Q5T2W1 4-100, limits assumed, looked up): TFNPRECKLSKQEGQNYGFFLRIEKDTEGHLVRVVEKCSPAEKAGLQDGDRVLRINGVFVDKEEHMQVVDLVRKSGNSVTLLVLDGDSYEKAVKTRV

T11: LRRC7, Q96NW7
T11 sequence (Q96NW7 1440-1537, limits assumed, looked up): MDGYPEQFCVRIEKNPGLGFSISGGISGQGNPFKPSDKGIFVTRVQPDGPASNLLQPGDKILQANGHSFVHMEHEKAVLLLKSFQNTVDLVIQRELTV


Assays:
Assay in all cases: holdup assay
Design in all cases: key: below the threshold = too weak to quantify, mostly under pKd 3.1 to 4
LNX1_1, Q8TBB1 = molecular target: LNX1_1, Q8TBB1
LNX1_1, Q8TBB1, sequence (Q8TBB1 261-371): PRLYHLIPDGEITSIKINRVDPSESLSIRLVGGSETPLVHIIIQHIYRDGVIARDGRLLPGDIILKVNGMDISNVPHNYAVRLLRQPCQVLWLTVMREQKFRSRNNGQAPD

LIN7A, O14910 = molecular target: T1, LIN7A, O14910
Inadl_2, Q8NI35 = details: plain residues with an end cap or a label only (N-terminal biotin on a linker: ttds)
Inadl_2, Q8NI35, sequence (Q8NI35 238-335): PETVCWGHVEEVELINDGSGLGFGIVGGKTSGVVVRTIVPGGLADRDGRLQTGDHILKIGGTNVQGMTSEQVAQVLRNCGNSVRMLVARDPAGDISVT

SNTB1, Q13884 = molecular target: T2, SNTB1, Q13884
NHERF3_3, Q5T2W1 = molecular target: T3, NHERF3_3, Q5T2W1; details: plain residues with an end cap or a label only (N-terminal biotin on a linker: ttds)
TJP2_1, Q9UDY2 = molecular target: TJP2_1, Q9UDY2
TJP2_1, Q9UDY2, sequence (Q9UDY2 24-128): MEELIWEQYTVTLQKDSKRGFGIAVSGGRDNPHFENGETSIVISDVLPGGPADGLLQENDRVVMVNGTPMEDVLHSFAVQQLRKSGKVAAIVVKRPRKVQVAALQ

AHNAK1, Q09666 = details: plain residues with an end cap or a label only (N-terminal biotin on a linker: ttds)
AHNAK1, Q09666, sequence (Q09666 4-100): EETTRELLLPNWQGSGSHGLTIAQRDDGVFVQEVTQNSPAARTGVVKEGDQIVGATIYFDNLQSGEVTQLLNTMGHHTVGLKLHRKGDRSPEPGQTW

FRMPD2_2, Q68DX3 = molecular target: FRMPD2_2, Q68DX3
FRMPD2_2, Q68DX3, sequence (Q68DX3 944-1038): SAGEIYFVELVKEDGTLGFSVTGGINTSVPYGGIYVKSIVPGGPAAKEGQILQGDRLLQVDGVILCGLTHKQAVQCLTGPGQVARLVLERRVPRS

TJP1_2, Q07157 = molecular target: TJP1_2, Q07157
TJP1_2, Q07157, sequence (Q07157 181-274): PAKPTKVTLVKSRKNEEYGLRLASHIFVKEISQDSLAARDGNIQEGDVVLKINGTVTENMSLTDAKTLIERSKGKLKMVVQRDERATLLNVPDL

MPDZ_5, O75970 = molecular target: T4, MPDZ_5, O75970; details: plain residues with an end cap or a label only (N-terminal biotin on a linker: ttds)
Inadl_6, Q8NI35 = molecular target: Inadl_6, Q8NI35
Inadl_6, Q8NI35, sequence (Q8NI35 1058-1167): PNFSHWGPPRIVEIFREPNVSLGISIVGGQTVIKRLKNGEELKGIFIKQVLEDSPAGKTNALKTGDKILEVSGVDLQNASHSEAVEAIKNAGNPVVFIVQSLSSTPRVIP

NHERF4_2, Q86UT5 = molecular target: NHERF4_2, Q86UT5
NHERF4_2, Q86UT5, sequence (Q86UT5 220-308): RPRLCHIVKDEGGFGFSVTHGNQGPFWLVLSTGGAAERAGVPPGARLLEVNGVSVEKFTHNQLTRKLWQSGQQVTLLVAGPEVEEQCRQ

TJP3_3, O95049 = molecular target: T5, TJP3_3, O95049; details: plain residues with an end cap or a label only (N-terminal biotin on a linker: ttds)
CARD11, Q9BXL7 = molecular target: T6, CARD11, Q9BXL7; details: plain residues with an end cap or a label only (N-terminal biotin on a linker: ttds)
MAGI2_5, Q86UL8 = molecular target: MAGI2_5, Q86UL8
MAGI2_5, Q86UL8, sequence (Q86UL8 915-1017): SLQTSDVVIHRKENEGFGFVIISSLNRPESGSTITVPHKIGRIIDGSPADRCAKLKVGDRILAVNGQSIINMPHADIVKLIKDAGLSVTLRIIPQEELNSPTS

MAGI2_3, Q86UL8 = molecular target: MAGI2_3, Q86UL8
MAGI2_3, Q86UL8, sequence (Q86UL8 600-682): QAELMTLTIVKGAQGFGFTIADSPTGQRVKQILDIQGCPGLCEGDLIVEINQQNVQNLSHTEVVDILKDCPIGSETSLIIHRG

DLG3_2, Q92796 = molecular target: T7, DLG3_2, Q92796; details: plain residues with an end cap or a label only (N-terminal biotin on a linker: ttds)
LIN7C, Q9NUP9 = molecular target: T8, LIN7C, Q9NUP9
PICK1, Q9NRD5 = molecular target: PICK1, Q9NRD5
PICK1, Q9NRD5, sequence (Q9NRD5 17-115): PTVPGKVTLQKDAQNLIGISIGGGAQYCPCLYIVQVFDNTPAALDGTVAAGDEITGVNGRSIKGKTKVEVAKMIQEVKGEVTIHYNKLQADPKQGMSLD

DLG3_1, Q92796 = molecular target: T9, DLG3_1, Q92796
GRID2IP_2, A4D2P6 = molecular target: GRID2IP_2, A4D2P6
GRID2IP_2, A4D2P6, sequence (A4D2P6 272-370): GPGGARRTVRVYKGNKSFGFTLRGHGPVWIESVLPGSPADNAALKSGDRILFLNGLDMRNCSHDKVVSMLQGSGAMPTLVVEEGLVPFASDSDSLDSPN

NHERF3_1, Q5T2W1 = molecular target: T10, NHERF3_1, Q5T2W1
Inadl_8, Q8NI35 = molecular target: Inadl_8, Q8NI35
Inadl_8, Q8NI35, sequence (Q8NI35 1425-1530): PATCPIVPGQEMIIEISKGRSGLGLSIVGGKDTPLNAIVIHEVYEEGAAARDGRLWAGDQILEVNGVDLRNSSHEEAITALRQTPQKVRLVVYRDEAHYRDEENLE

DLG2_3, Q15700 = details: plain residues with an end cap or a label only (N-terminal biotin on a linker: ttds)
LRRC7, Q96NW7 = molecular target: T11, LRRC7, Q96NW7
FRMPD4, Q14CM0 = details: plain residues with an end cap or a label only (N-terminal biotin on a linker: ttds)
FRMPD4, Q14CM0, sequence (Q14CM0 67-160): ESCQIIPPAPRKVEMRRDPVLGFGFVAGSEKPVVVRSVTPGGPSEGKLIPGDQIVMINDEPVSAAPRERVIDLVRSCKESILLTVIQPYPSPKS

[1] = plain residues with an end cap or a label only (N-terminal biotin on a linker: ttds)
[2] = plain residues with an end cap or a label only (N-terminal biotin on a linker: ado-ado)

Binder	pKd (LNX1_1, Q8TBB1; [1])	pKd (LIN7A, O14910; [1])	pKd (Inadl_2, Q8NI35)	pKd (SNTB1, Q13884; [1])	pKd (NHERF3_3, Q5T2W1)	pKd (TJP2_1, Q9UDY2; [1])	pKd (AHNAK1, Q09666)	pKd (FRMPD2_2, Q68DX3; [1])	pKd (TJP1_2, Q07157; [1])	pKd (MPDZ_5, O75970)	pKd (Inadl_6, Q8NI35; [1])	pKd (NHERF4_2, Q86UT5; [1])	pKd (TJP3_3, O95049)	pKd (CARD11, Q9BXL7)	pKd (MAGI2_5, Q86UL8; [1])	pKd (MAGI2_3, Q86UL8; [1])	pKd (DLG3_2, Q92796)	pKd (LIN7C, Q9NUP9; [1])	pKd (PICK1, Q9NRD5; [1])	pKd (DLG3_1, Q92796; [1])	other results
SRPQRTQTQV [HPV67-E6, A4U7F2]	below the threshold	below the threshold	below the threshold	below the threshold	below the threshold	3.86	below the threshold	3.53	below the threshold	below the threshold	below the threshold	below the threshold	below the threshold	below the threshold	3.94	below the threshold	5.06	below the threshold	below the threshold	3.89	pKd (GRID2IP_2, A4D2P6; [1]): below the threshold; pKd (NHERF3_1, Q5T2W1; [1]): 3.98; pKd (Inadl_8, Q8NI35; [1]): below the threshold; pKd (DLG2_3, Q15700): 4.52; pKd (LRRC7, Q96NW7; [1]): below the threshold; pKd (FRMPD4, Q14CM0): below the threshold
KRPEMTSSSV [MUC3B, MUC3A, Q02505;Q9H195]	–	–	–	–	–	–	–	–	–	–	–	–	–	–	–	–	–	–	–	–	pKd (FRMPD2_2, Q68DX3; [2]): below the threshold; pKd (TJP1_2, Q07157; [2]): below the threshold; pKd (MAGI2_5, Q86UL8; [2]): 3.82; pKd (MAGI2_3, Q86UL8; [2]): below the threshold; pKd (LIN7C, Q9NUP9; [2]): below the threshold; pKd (PICK1, Q9NRD5; [2]): 2.09; pKd (DLG3_1, Q92796; [2]): below the threshold; pKd (NHERF3_1, Q5T2W1; [2]): 3.85; pKd (Inadl_8, Q8NI35; [2]): 4.63
RSLEEEESQL [GRASP, Q7Z6J2]	below the threshold	3.56	below the threshold	3.89	below the threshold	3.65	3.93	below the threshold	below the threshold	3.53	4.05	below the threshold	3.65	3.81	4.42	3.65	3.63	3.78	3.59	3.6	pKd (GRID2IP_2, A4D2P6; [1]): 4.33; pKd (NHERF3_1, Q5T2W1; [1]): 5.27; pKd (Inadl_8, Q8NI35; [1]): 3.71; pKd (DLG2_3, Q15700): below the threshold; pKd (LRRC7, Q96NW7; [1]): below the threshold; pKd (FRMPD4, Q14CM0): 4.48
SVWLRKETRV [CYSLTR2, Q9NS75]	3.59	4.17	below the threshold	5.5	3.52	4.45	below the threshold	3.6	below the threshold	3.36	below the threshold	below the threshold	3.37	below the threshold	3.93	4.73	5.32	5.03	3.42	4.41	pKd (GRID2IP_2, A4D2P6; [1]): 3.45; pKd (NHERF3_1, Q5T2W1; [1]): 4.8; pKd (Inadl_8, Q8NI35; [1]): 4.55; pKd (DLG2_3, Q15700): 5.4; pKd (LRRC7, Q96NW7; [1]): 3.65; pKd (FRMPD4, Q14CM0): below the threshold
KSRVAFFEEL [NF2, P35240]	–	–	–	–	–	–	–	–	–	–	–	–	–	–	–	–	–	–	–	–	pKd (LNX1_1, Q8TBB1; [2]): 3.73; pKd (LIN7A, O14910; [2]): 3.51; pKd (SNTB1, Q13884; [2]): 3.54; pKd (TJP2_1, Q9UDY2; [2]): 3.63; pKd (TJP1_2, Q07157; [2]): 3.51; pKd (Inadl_6, Q8NI35; [2]): 3.47; pKd (NHERF4_2, Q86UT5; [2]): 3.66; pKd (MAGI2_3, Q86UL8; [2]): 3.55; pKd (DLG3_1, Q92796; [2]): 3.58; pKd (GRID2IP_2, A4D2P6; [2]): 3.59; pKd (LRRC7, Q96NW7; [2]): 3.5
